Numbering of substitutions follows the chain as printed. Names and notes keep the numbering of the source.

T1: Human CD3eg linker (human)
T1 construct: Single chain: epsilon and gamma subunits of human CD3 joined by a 29-mer linker, Flag-tag at the C-terminus; also called recombinant human CD3
T1 chain: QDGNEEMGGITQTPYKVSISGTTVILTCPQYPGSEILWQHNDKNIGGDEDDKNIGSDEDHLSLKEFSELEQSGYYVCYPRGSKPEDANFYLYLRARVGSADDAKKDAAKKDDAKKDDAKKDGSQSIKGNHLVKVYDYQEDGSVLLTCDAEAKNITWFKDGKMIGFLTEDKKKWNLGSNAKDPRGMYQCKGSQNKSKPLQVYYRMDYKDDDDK

B1: H183/L072 VH A56I (antibody, name in Kabat numbering, V domains shown)
VH: QVQLVESGGGLVQPGRSLRLSCAASGFTFSNAWMHWVRQAPGKGLEWVAQIKDKGNAYIAYYAPSVKGRFTISRDDSKNSIYLQMNSLKTEDTAVYYCHYVHYASASTVLPAFGVDAWGQGTTVTVSS
VL: DIVMTQSPLSLPVTPGEPASISCQASQELVHMNRNTYLHWYQQKPGQAPRLLIYKVSNRFPGVPDRFSGSGSGTDFTLKISRVEAEDVGVYYCAQGTSVPFTFGQGTKLEIK
B2: H183/L072 VH A57F (antibody, name in Kabat numbering, V domains shown)
VH: B1 VH with I59A, A60F
VL: B1 VL
B3: H183/L072 VH A57R (antibody, name in Kabat numbering, V domains shown)
VH: B1 VH with I59A, A60R
VL: B1 VL
B4: H183/L072 VH A57T (antibody, name in Kabat numbering, V domains shown)
VH: B1 VH with I59A, A60T
VL: B1 VL
B5: H183/L072 VH A56W (antibody, name in Kabat numbering, V domains shown)
VH: B1 VH with I59W
VL: B1 VL
B6: H183/L072 VH A56S (antibody, name in Kabat numbering, V domains shown)
VH: B1 VH with I59S
VL: B1 VL
B7: H183/L072 VH A56T (antibody, name in Kabat numbering, V domains shown)
VH: B1 VH with I59T
VL: B1 VL
B8: H183/L072 VH A56P (antibody, name in Kabat numbering, V domains shown)
VH: B1 VH with I59P
VL: B1 VL
B9: H183/L072 VH A56N (antibody, name in Kabat numbering, V domains shown)
VH: B1 VH with I59N
VL: B1 VL
B10: H183/L072 VH A57Y (antibody, name in Kabat numbering, V domains shown)
VH: B1 VH with I59A, A60Y
VL: B1 VL
B11: H183/L072 VH A57S (antibody, name in Kabat numbering, V domains shown)
VH: B1 VH with I59A, A60S
VL: B1 VL
B12: H183/L072 VH A57M (antibody, name in Kabat numbering, V domains shown)
VH: B1 VH with I59A, A60M
VL: B1 VL
B13: H183/L072 VH A57E (antibody, name in Kabat numbering, V domains shown)
VH: B1 VH with I59A, A60E
VL: B1 VL
B14: H183/L072 VH A57H (antibody, name in Kabat numbering, V domains shown)
VH: B1 VH with I59A, A60H
VL: B1 VL
B15: H183/L072 VH A57P (antibody, name in Kabat numbering, V domains shown)
VH: B1 VH with I59A, A60P
VL: B1 VL
B16: H183/L072 VH A56Y (antibody, name in Kabat numbering, V domains shown)
VH: B1 VH with I59Y
VL: B1 VL
B17: H183/L072 VH A56R (antibody, name in Kabat numbering, V domains shown)
VH: B1 VH with I59R
VL: B1 VL
B18: H183/L072 VH A57G (antibody, name in Kabat numbering, V domains shown)
VH: B1 VH with I59A, A60G
VL: B1 VL
B19: H183/L072 VH A57D (antibody, name in Kabat numbering, V domains shown)
VH: B1 VH with I59A, A60D
VL: B1 VL
B20: H183/L072 VH A56K (antibody, name in Kabat numbering, V domains shown)
VH: B1 VH with I59K
VL: B1 VL
B21: H183/L072 VH A56V (antibody, name in Kabat numbering, V domains shown)
VH: B1 VH with I59V
VL: B1 VL
B22: H183/L072 VH A57V (antibody, name in Kabat numbering, V domains shown)
VH: B1 VH with I59A, A60V
VL: B1 VL
B23: H183/L072 VH A57W (antibody, name in Kabat numbering, V domains shown)
VH: B1 VH with I59A, A60W
VL: B1 VL
B24: H183/L072 VH A57I (antibody, name in Kabat numbering, V domains shown)
VH: B1 VH with I59A, A60I
VL: B1 VL
B25: H183/L072 VH A56Q (antibody, name in Kabat numbering, V domains shown)
VH: B1 VH with I59Q
VL: B1 VL
B26: H183/L072 VH A56M (antibody, name in Kabat numbering, V domains shown)
VH: B1 VH with I59M
VL: B1 VL
B27: H183/L072 VH A57K (antibody, name in Kabat numbering, V domains shown)
VH: B1 VH with I59A, A60K
VL: B1 VL
B28: H183/L072 VH A56L (antibody, name in Kabat numbering, V domains shown)
VH: B1 VH with I59L
VL: B1 VL
B29: H183/L072 VH A57L (antibody, name in Kabat numbering, V domains shown)
VH: B1 VH with I59A, A60L
VL: B1 VL
B30: H183/L072 VH A57N (antibody, name in Kabat numbering, V domains shown)
VH: B1 VH with I59A, A60N
VL: B1 VL
B31: H183/L072 VH A57Q (antibody, name in Kabat numbering, V domains shown)
VH: B1 VH with I59A, A60Q
VL: B1 VL

The target in the experiment is T1, Human CD3eg linker. Kind of experiment: Biacore SPR, vs template H183/L072.
Turning to B1, the “fold change of affinity” value was 0.6 fold.
Consider B2, for which the “fold change of affinity” value is 0.4 fold.
With B3 the figure was 1.3 fold.
Turning to B4, the “fold change of affinity” value worked out at 1.3 fold.
Take B5: the “fold change of affinity” value worked out at 0.8 fold.
On to B6, for which the “fold change of affinity” value worked out at 0.9 fold.
With B7, the “fold change of affinity” value amounted to 0.7 fold.
Take B8: the “fold change of affinity” value came out at 0.3 fold.
With B9 the figure was 0.9 fold.
B10: the “fold change of affinity” value amounted to 0.4 fold.
With B11 the figure was 1.1 fold; with B12, 0.9 fold; with B13, 1 fold.
Take B14: the “fold change of affinity” value came out at 0.9 fold.
As for B15, the “fold change of affinity” value turned out to be 0.9 fold.
On to B16, for which the “fold change of affinity” value was 0.7 fold.
With B17 the figure was 1.3 fold; with B18, 0.7 fold; with B19, 1 fold.
Turning to B20, the “fold change of affinity” value came out at 1.3 fold.
Consider B21, for which the “fold change of affinity” value amounted to 0.7 fold.
With B22 the figure was 0.9 fold.
With B23, the “fold change of affinity” value came out at 0.4 fold.
As for B24, the “fold change of affinity” value was 0.6 fold.
On to B25, for which the “fold change of affinity” value is 1 fold.
For B26, the “fold change of affinity” value turned out to be 1 fold.
With B27 the figure was 1.5 fold; with B28, 0.7 fold; with B29, 0.5 fold.
With B30 the figure was 0.7 fold; with B31, 1.1 fold.
